Assay results from the DeepSol protein solubility set.

Test: soluble on expression in E. coli; label from the status in PepcDB or PDB records

| Sequence | soluble on expression in E. coli |
| --- | --- |
| MSRPRKRLAGTSGSDKGLSGKRTKTENSGEALAKVEDSNPQKTSATKNCLKNLSSHWLMKSEPESRLEKGVDVKFSIEDLKAQPKQTTCWDGVRNYQARNFLRAMKLGEEAFFYHSNCKEPGIAGLMKIVKEAYPDHTQFEKNNPHYDPSSKEDNPKWSMVDVQFVRMMKRFIPLAELKSYHQAHKATGGPLKNMVLFTRQRLSIQPLTQEEFDFVLSLEEKGPSLEHHHHHH | not soluble |
| MELTLESQGYLESLYRAYLEDPLSLPEDWRRYFSALTLEDLEDGRRERQAAPLPGEALDLGFLLKVEALRQAYRELGHLAARIDPLGRERPRPKALSLEAHGLSPEDLKRPLPPLFGAPTLGALLERLEATYLGPVGFEVAHVEPEERAWLLSRIEAPWPKPAPEVRRRVLRSLLQASLFEAFLQRKYLGAKTFSVEGLESLIPLLQEAVQEAARFGVREVVLGMAHRGRLNVLAHVVEKPFEAIFREFEELFPEGYVGDVKYHLGHSTDVETPWGPVHVSLNFNPSHLEFVNPVALGRVRAKQDRFGDRERKRGLAVLVHGDAAFIGEGIVQETLNLSQLPGYRVGGTLHVVANNQLGFTTLPSEYTSSRYPTDVAKMVGAPIFHVNAEALDELLFVLALALEYRSRYGKDVVIDLVGYRRRGHNETDEPTFTQPGMYALIAKKPEPWRVYAERLEAEGLVSEEELKAWQEAYLERLESEFARVKAEATPVVYSTLGGVWQGYVGGPDHLVPEADTAFPKEGLKNLLVRLSSVPEGFQVHPKLKRFLEARREMAEEKRPVDWATAEALAFATLAVEGHRVRLTGQDALRGTFTQRHAALYDYRTGERYIPLQHLAEGQAEVEIHNSPLSEAGVLGFEYGYSLDYPEGLVLWEAQFGDFVNVAQVYIDQFLASAEVKWNRLSGLVLLLPHGLEGQGPEHSSARLERFLQLAAKDNLQVAYPTTPAQFFHLLRRQVKRKIRKPLVVMTPKSLLRHPEVVSALEELAEGRFQKVIPERVKGARKVLLTSGKVYYDLLQKRKELQAEDVAILRLELLYPFPEAELQEALGAYPKKVPVVFVQEEPVNQGAWWYLSARFCGEIYGHPFSVVARPESPSPAVGSSKVHKLEQEELLEEAFR | soluble |
| AALPDSVDWREKGCVTEVKYQGSCGASWAFSAVGALEAQLKLKTGKLVSLSAQNLVDCSTEKYGNKGCNGGFMTTAFQYIIDNKGIDSDASYPYKAMDQKCQYDSKYRAATCSKYTELPYGREDVLKEAVANKGPVSVGVDARHPSFFLYRSGVYYEPSCTQNVNHGVLVVGYGDLNGKEYWLVKNSWGHNFGEEGYIRMARNKGNHCGIASFPSYPEILQG | soluble |
| MSSFVLDFQEIEKTQLSLVGGKGLNLGALSNMQGIQVPEGFCVTTAGYEKAIEQNEELQALLQQLTKLKREERVRIGEISKKIRENIMAVQIPSDVVEAVAHYLSRFGNEHAYAVRSSATAEDLPYASFAGQQDTYLNIIGENAILQHVRKCWASLFTDRAVMYRMQNGFEHNQVSICVVVQKMVFPQASGILFTADPITSNRKVLSIDASFGLGEALVSGLVSADNYKVKEGEIIDKMIATKKLAIYALKEGGTETKQNDPVQQKIQTLSDQQILQLVQIGRQIEAYFGCPQDIEWCLVDHTFYIVQSRPITTLYPIPEENDEGNHVYISVGHQQMMTDAMKPLGLSFFLLTTNAPMRKAGGRLFVDATQQLVLPASRDYLINTLGKSDPLVRDALTTIIERDDFITLLPDEEKEKSASKSKPPVSSQPEIENDPAIVTELIRNSEASLEELKQNMQLKSGVDVFDFILEDIQQLKKVLFNPQSIAVIMAGMNASTWINEKMEQWLGEKNAADMLSQSVQNNITSEMGLALMDVADAIRPYPEVITYLQHVEDDSFLDELVQYKGGEKARDTIVAFLNKYGMRCSGEIDITKTRWSEKPTTIIPMILNNIRDFEAGASKQKFEKGLQEALNKEEELLDRLQHLPKGKQKVEETKRMIRNIRNFIGYREYPKYGMINRYFIYKQALLKEAEQLVQSGVICEVDDIYYLTFEELHEVVRTNKLDYELIQKQKNDYKLYEKLTPPRVMTSDGEIITGKYKRENLPADAIVGLPVSSGVVEGRARVILNMEEANLEEGDILVTAFTDPGWTPLFVSIKGLVTEVGGLMTHGAVIAREYGLPAVVGVENATKRIKDGQRIRVHGTEGYIEML | not soluble |
| AHHHHHHGSRGILDDIDKKIIEILQKDGKVPLREISKITGLAESTIHERIKRLRESGVIKKFTAVVNPEALGYNILAFILIKVKAGKYSEVASKLVKYPEIVEVYETTGDYDMVVKIRTKNSEELNNFLDMVGSIEGVEGTHTMIVLKVHKETTELPVK | soluble |
| MLFTIEQLELIKKLQHTGMSSDQLLKAFGELEVPEQLQNNNTIAAALYSPLLVQHLTTPKSETPVKLTVQTVPTPVKSEPQSSNCSSPFEHPICSNAPRPIRSQRTPMKEITTLDDPNELEEFMKQGEEACILDMKTFITQYSLRQTTVAMMTGVSQPYISKLLNGNHRELSLRCRKNIYCWYLNCRRHPNKLAAFLADPTTRLETNGDGELIPQRRERYVFRPILIRMLESFFTQTPFPDLPRRVEIANACNHVLKMDKKGVGLMPKEVVSPQVVSNWFANKRKELRRRSAEASAASTSSASSSASSTANHDSVSVSSMSPRDEETSSRNTTPETAISPSPAVSTFEVSRPSAIISATSSTTSPISIPATIIPSVSPSALELFAMAQQLGVQLPVPFPTLPTHFFPFQMAPFYGNPASILKSE | not soluble |
| MGSDKIHHHHHHMEQNAEKRSIVGDDNSTVKRQDTSPSKGIAHIKPEYIVPLKQNENQKVAIYDEEMSSDRMTNEFAGGTNKKNKNGRGKKRGQNKNRDNRQVKEQNVLCPRLIHGDISKCSFGDNCRFVHDINLYLSTKKPEVESNIFPSCPVFNSLGFCPMGFKCRFLSSHLNKEDNILISKKEIDPDAQTIWSVKGEVNHISPERKLDLIKRRFPFTKSNEILEIIDSFQQECRDSMKPEEEVESTPQLKKQDPDVEQPVAPQVEQRNKELSEHRMKQREVYLKYKDTRYFAQEKKPLDLYHKKIVSPLTTVGNLPYRRLMRKLGADVTYSEMALAVPLIQGTNSEWALPKAHTSEFPGFGVQVACSKAWQAAKAAEALANSVSEISEINLNSGCPIDLLYRQGSGSALLDNPARMIRCLNAMNYVSKDIPITVKIRTGTKEGHPIAEGLVKRLVNETDVAAITLHGRSRQQRYTKSADWDYVSQVADTLRSAEADFIETEQGKEGRDSKNRIQFVGNGDVNNFEDWYRYLNGNENIDSVMVARGALIKPWIFEEVESQQYLDKTSTERLDILRDYAQFSMEHWGTDEYGISQCRRFFCEFMSFFHRYVPWVFVKDTL | not soluble |
| LEGENSKQKVQMSIHQFTNICFKKCVESVNDSNLSSQEEQCLSNCVNRFLDTNIRIVNGLQNTR | soluble |
| DMPAEIVNLIGKMRFHTVYGQNLLQHSREVAMLAGLMAAELKLDAKQAKRAGLLHDIGLVLPETEMPHALAGMEFLKKFNMSPVVLNAIGAHHGEVEKASPIADLVDAANIVSLSRPGARGAVTAEGNVKRLESLEEIARTFPGVIKTYALQAGREIRVIVEGDNVSD | not soluble |
| MAMSFEWPWQYRFPPFFTLQPNVDTRQKQLAAWCSLVLSFCRLHKQSSMTVMEAQESPLFNNVKLQRKLPVESIQIVLEELRKKGNLEWLDKSKSSFLIMWRRPEEWGKLIYQWVSRSGQNNSVFTLYELTNGEDTEDEEFHGLDEATLLRALQALQQEHKAEIITVSDGRGVKFF | soluble |
| MGSDKIHHHHHHMNEKTSVSSDRRDFWDGRAREFSEHAASTGYPRAFLRILKPRKSWTVLDMACGGGTIAIPLANRVKFITAVDFSMRMLEIVEQRCLAGKITNVKTLQGRWEDDWDDLGIGVHDVAIASRSLLSETAMDSIAKLNRAATKAVYISVAVGSGPFDWRLLEAADRERNTRPDYIFYYNLLYEMGIPANVSFIPESYRNSWESHEEAFEDQLWMFQGMTGEEEEKVRAYLREHLVWVKGHWQLPYSRNYYWAVLYWTKDREIGS | not soluble |
| GLGGEPVIVYADRGRSVIAAVEGRVEDLVRGDMIVVQADSNGEEVVYIASSPTEPPEVYRFKGGDVERVSSINRWVVEEFRLYKPRRVEVEAEGEVVEGWYIEPEGEGRKPLILFIHGGPKGMYGYGFYGEMQLFASEGFTVAYANPRGSDGYEEEFADIRGRYGDTDYKQLMKFLDAVVEGSDVDEGKMAVTGISYGGYMTNVIVTKTSRFRAAVSENGIADWIADFWAADIGYWFDPDQIGGTPLDNLEEYVKRSPAFHAKNVNTPVMLIHSMEDYRCFIDQALAMHTALKVNGKESFLVVFTKGSHGHSILASPRHRRKRLELKLKWIKEKLG | not soluble |
| MALRWGIVSVGLISSDFTAVLQTLPRSEHQVVAVAARDLSRAKEFAQKHDIPKAYGSYEELAKDPNVEVAYVGTQHPQHKAAVMLCLAAGKAVLCEKPMGVNAAEVREMVTEARSRGLFLMEAIWTRFFPASEALRSVLAQGTLGDLRVARAEFGKNLTHVPRAVDWAQAGGALLDLGIYCVQFISMVFGGQKPEKISVMGRRHETGVDDTVTVLLQYPGEVHGSFTCSITAQLSNTASVSGTKGMAQLLNPCWCPTELVVKGEHKEFLLPPVPKNCNFDNGAGMSYEAKHVRECLRKGLKESPVIPLVESELLADILEEVRRAIGVTFPQDKH | soluble |
| MSINKIEEDRDISSDLEMKAKMYLVHRMDKAGPLTVKDVRILINKLSKDLQKNQLTLIDCQLIINLVESRFTLVKQATRYLQFFLNKLDGKSINPILIPLSNKPFWQNEPHPFDHYRSTDQLPEKVDIVIIGAGLTGASTAYHLIDAVKKRHLTVVLLDKGNPATEASGRNGGNFELLPENSVGIYSGLVSERFRFLKRCYPHVHPSILQIESEYHASLVFQFALKNRNRFKEIARKERIYCDLAAKGWLYIAHTEEEEQAICDEVTLAAQHGERIYIWSRKKIREQFGINSKFIGRFIPDDGTYNPFKYTCCLIKAAIKSGIKLYTFVKVQQIKSIDTEYHQLKTNMGLLKARQVIVATNAFTSELLPELRAIKPHQSQIAITDSTPDYCKGRLITSEDGPLYLNQPRVRSKNGLVPLLIGAGDDRPMKNPYYRKRSKKVHDLIVQQRDKYFPNLKGRPFSTEWVGALAFTPDQLPAIGYLSPGIIIVMCCNGYGGSYTTAAGLAAAEIALTGKNPPWLPADVFSPKRLLSDKPLFWEDSDSLWRIGKTLCTTLNNLNQLLAESLSYQSMYQPYSTISLLPHGHQEKNCNLDPLRVMHQLAIFRTFAYQELEMLIRYTSPVCLSKGEILFKQGDAGHSCFILIQGKINLYYEHAEGFTSMVAELEAGSVFGQMALFLENKRMATCQATENCSMLEIMVEPCKSLFIQQQALGIKLLRLLNQGVIDALHKLNKRLKYT | not soluble |
| MANYYEVLGVQASASPEDIKKAYRKLALRWHPDKNPDNKEEAEKKFKLVSEAYEVLSDSKKRSLYDRAGCDSWRAGGGA | soluble |
| MLDIVLYEPEIPQNTGNIIRLCANTGFRLHLIEPLGFTWDDKRLRRSGLDYHEFAEIKRHKTFEAFLESEKPKRLFALTTKGCPAHSQVKFKLGDYLMFGPETRGIPMSILNEMPMEQKIRIPMTANSRSMNLSNSVAVTVYEAWRQLGYKGAVNLPEVKLEHHHHHH | soluble |
| MGSDKIHHHHHHMKKLYILAIAIAVTTFSCKKNKEDEPAPSGSEQAKVVENYANIVYATYDDALITAKNLRAKAADFVASPSEAGLEEVRAAYIASRTPYIQSEAFRFYSGPIDQDLGGGLTIESSINSWPLEEVYIDYVVGDANAGIINDVAHFPTIDKNVILENNQKEGAGENSVSSGYHAVEFLLWGQDLSETGPGDRKYTDYLVNSDDATNLNQARRGQYLLACIDLIIDNLQTLKEAWKSGNASNYRAGFIADPKGSIGNFLKGVIGYADDELSVERMQVALDTEGDAERQEQEQSCFSDQTYNDIILGQKGIKNVYVGEYVRIDGTIVSGMSVSDLVKAADPKLDSTVRAKIYDTDIKVAAIHAPFDNEILTANTAGTIRVQNAINALHVEAAQYKNAANKIGYLY | not soluble |
| MARATTKQDLIMASNGQFEKLWVLIDGMSDDLQNATFADQMATAGKEAHWGRDKNLRDVLVHLYEWHQLLLNWINSNSKGERKPFLPEPYNWKTYSVMNVEFWKKHQQTPLAEAKDKLKESHRQVMALIETFSNDELFAKGVFDWTDTSTLGAYCVSATSSHYDWAMKKIKLHIKTGK | not soluble |
